Measurements from US20110098217A1 (INDIANA UNIVERSITY RESEARCH AND TECHNOLOGY, published 2011).
“And” between values parts separate entries of the source, which are not always exact repeats. Equal values may be shown once. Bridge positions count the residues as written; N and C are the ends. Square brackets hold non-standard residues; d marks the D form. Primed or numbered codes have the meaning given here. Ends that are not written are not given here. MCA = alpha-methylhydrocinnamic acid (2-methyl-3-phenylpropanoic acid); PEG 20 kDa″ = 20 kDa polyethylene glycol (PEG); Abu(4-SO3H) = N[C@@H](CCS(=O)(=O)O)C(=O)O; PEG 20 kDa = 20 kDa polyethylene glycol; PhLac = O=C(O)[C@@H](O)Cc1ccccc1

B1: [desHis^1, Leu^4, hCys^9(SO3-), Phe^25, Leu^27] Glucagon-NH2 (peptide)
peptide: SQLTFTS[Abu(4-SO3H)]YSKYLDSRRAQDFVQFLLNT-NH2
modifications: N-terminus assumed
SMILES: CC(C)C[C@H](NC(=O)[C@H](Cc1ccc(O)cc1)NC(=O)[C@H](CCCCN)NC(=O)[C@H](CO)NC(=O)[C@H](Cc1ccc(O)cc1)NC(=O)[C@H](CCS(=O)(=O)O)NC(=O)[C@H](CO)NC(=O)[C@@H](NC(=O)[C@H](Cc1ccccc1)NC(=O)[C@@H](NC(=O)[C@H](CC(C)C)NC(=O)[C@H](CCC(N)=O)NC(=O)[C@@H](N)CO)[C@@H](C)O)[C@@H](C)O)C(=O)N[C@@H](CC(=O)O)C(=O)N[C@@H](CO)C(=O)N[C@@H](CCCNC(=N)N)C(=O)N[C@@H](CCCNC(=N)N)C(=O)N[C@@H](C)C(=O)N[C@@H](CCC(N)=O)C(=O)N[C@@H](CC(=O)O)C(=O)N[C@@H](Cc1ccccc1)C(=O)N[C@H](C(=O)N[C@@H](CCC(N)=O)C(=O)N[C@@H](Cc1ccccc1)C(=O)N[C@@H](CC(C)C)C(=O)N[C@@H](CC(C)C)C(=O)N[C@@H](CC(N)=O)C(=O)N[C@H](C(N)=O)[C@@H](C)O)C(C)C
B2: [PLA6, E16, GLP(23-32)]G(6-29) (peptide)
peptide: [PhLac]TSDYSKYLDEQAAKEFIAWLMNT-NH2
modifications: N-terminus assumed
SMILES: CC[C@H](C)[C@H](NC(=O)[C@H](Cc1ccccc1)NC(=O)[C@H](CCC(=O)O)NC(=O)[C@H](CCCCN)NC(=O)[C@H](C)NC(=O)[C@H](C)NC(=O)[C@H](CCC(N)=O)NC(=O)[C@H](CCC(=O)O)NC(=O)[C@H](CC(=O)O)NC(=O)[C@H](CC(C)C)NC(=O)[C@H](Cc1ccc(O)cc1)NC(=O)[C@H](CCCCN)NC(=O)[C@H](CO)NC(=O)[C@H](Cc1ccc(O)cc1)NC(=O)[C@H](CC(=O)O)NC(=O)[C@H](CO)NC(=O)[C@@H](NC(=O)[C@@H](O)Cc1ccccc1)[C@@H](C)O)C(=O)N[C@@H](C)C(=O)N[C@@H](Cc1c[nH]c2ccccc12)C(=O)N[C@@H](CC(C)C)C(=O)N[C@@H](CCSC)C(=O)N[C@@H](CC(N)=O)C(=O)N[C@H](C(N)=O)[C@@H](C)O
B3: [PLA6, K12E16(lactam), GLP(23-32)]G(6-29) (peptide)
peptide: [PhLac]TSDYSKYLDEQAAKDFIAWLMDT-NH2
modifications: lactam 7-11; N-terminus assumed
SMILES: CC[C@H](C)[C@H](NC(=O)[C@H](Cc1ccccc1)NC(=O)[C@H](CC(=O)O)NC(=O)[C@H](CCCCN)NC(=O)[C@H](C)NC(=O)[C@H](C)NC(=O)[C@H](CCC(N)=O)NC(=O)[C@@H]1CCC(=O)NCCCC[C@H](NC(=O)[C@H](CO)NC(=O)[C@H](Cc2ccc(O)cc2)NC(=O)[C@H](CC(=O)O)NC(=O)[C@H](CO)NC(=O)[C@@H](NC(=O)[C@@H](O)Cc2ccccc2)[C@@H](C)O)C(=O)N[C@@H](Cc2ccc(O)cc2)C(=O)N[C@@H](CC(C)C)C(=O)N[C@@H](CC(=O)O)C(=O)N1)C(=O)N[C@@H](C)C(=O)N[C@@H](Cc1c[nH]c2ccccc12)C(=O)N[C@@H](CC(C)C)C(=O)N[C@@H](CCSC)C(=O)N[C@@H](CC(=O)O)C(=O)N[C@H](C(N)=O)[C@@H](C)O
B4: [PLA6, E16K20(lactam), GLP(23-32)]G(6-29) (peptide)
peptide: [PhLac]TSDYSKYLDEQAAKEFIAWLMDT-NH2
modifications: lactam 11-15; N-terminus assumed
SMILES: CC[C@H](C)[C@H](NC(=O)[C@H](Cc1ccccc1)NC(=O)[C@H](CCC(=O)O)NC(=O)[C@@H]1CCCCNC(=O)CC[C@H](NC(=O)[C@H](CC(=O)O)NC(=O)[C@H](CC(C)C)NC(=O)[C@H](Cc2ccc(O)cc2)NC(=O)[C@H](CCCCN)NC(=O)[C@H](CO)NC(=O)[C@H](Cc2ccc(O)cc2)NC(=O)[C@H](CC(=O)O)NC(=O)[C@H](CO)NC(=O)[C@@H](NC(=O)[C@@H](O)Cc2ccccc2)[C@@H](C)O)C(=O)N[C@@H](CCC(N)=O)C(=O)N[C@@H](C)C(=O)N[C@@H](C)C(=O)N1)C(=O)N[C@@H](C)C(=O)N[C@@H](Cc1c[nH]c2ccccc12)C(=O)N[C@@H](CC(C)C)C(=O)N[C@@H](CCSC)C(=O)N[C@@H](CC(=O)O)C(=O)N[C@H](C(N)=O)[C@@H](C)O

Biological target: T1, human glucagon receptor (human, UniProt P47871 26-477)
T1 sequence (P47871 26-477): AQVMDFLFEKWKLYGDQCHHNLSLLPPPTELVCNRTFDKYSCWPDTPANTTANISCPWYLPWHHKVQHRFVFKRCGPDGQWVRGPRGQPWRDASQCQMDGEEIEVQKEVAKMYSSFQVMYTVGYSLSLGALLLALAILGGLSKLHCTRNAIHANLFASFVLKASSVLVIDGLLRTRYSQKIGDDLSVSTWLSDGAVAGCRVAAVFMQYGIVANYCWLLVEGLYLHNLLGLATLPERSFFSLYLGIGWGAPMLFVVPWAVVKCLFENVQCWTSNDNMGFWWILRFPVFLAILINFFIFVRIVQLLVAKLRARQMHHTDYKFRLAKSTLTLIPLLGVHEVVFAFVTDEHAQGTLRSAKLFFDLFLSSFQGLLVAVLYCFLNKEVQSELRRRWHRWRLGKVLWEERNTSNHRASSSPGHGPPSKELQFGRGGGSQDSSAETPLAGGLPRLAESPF
Assay: cell-based or functional assay

With B1 the “cAMP Induction EC50” value was 1610 nM.

In the case of B1, the “cAMP Inhibition IC50” value is reported as 4460 nM.

Biological target: T1, human glucagon receptor
Assay: cell-based or functional assay
Remark: another data set of the same source

Point of comparison: C(PEG 5 kDa)FTSEYSKYLDSRRAQDFVQWLMNT-NH2 [[C^5(5kDaPEG), E^9]Glucagon(aa5-29)-NH2], “IC50 (cAMP, inhibit 0.2 mM Glucagon)” value 1610 nM. Against it:
- C(PEG 1.2 kDa)FTSEYSKYLDSRRAQDFVQWLMNT-NH2 [[C^5(1.2kDaPEG), E^9]Glucagon(aa5-29)-NH2] — within 1.5-fold, 2280 nM
- C(PEG 20 kDa)FTSEYSKYLDSRRAQDFVQWLMNT-NH2 [[C^5(20kDaPEG), E^9]Glucagon(aa5-29)-NH2] — 1.6-fold lower, 976 nM
- C(PEG 3.4 kDa)FTSEYSKYLDSRRAQDFVQWLMNT-NH2 (also: dimer: Cys5 of two chains joined by 3.4 kDa PEG) [3.4kDaPEG-dimer[C^5, E^9]Glucagon(aa5-29)-NH2] — within 1.5-fold, 1340 nM
- [PhLac]TC(PEG 5 kDa)EYSKYLDSRRAQDFVQWLMNT-NH2 [[PLA^6, C^8(5kDaPEG), E^9]Glucagon(aa6-29)-NH2] — 7.5-fold lower, 216 nM
- [PhLac]TSEYSKYLDSRRAQDFVC(PEG 20 kDa)WLMNT-NH2 [[PLA^6, E^9, C^24(20kDaPEG)]Glucagon(aa6-29)-NH2] — 13-fold lower, 126 nM
- [PhLac]TSEYC(PEG 20 kDa)KYLDSRRAQDFVQWLMNT-NH2 [[PLA^6, E^9, C^11(20kDaPEG)]Glucagon(aa6-29)-NH2] — 2.4-fold lower, 664 nM
- [PhLac]TSEYSKYLDSRRAQDFVC(PEG 1.2 kDa)WLMNT-NH2 [[PLA^6, E^9,C^24(1.2 kDaPEG)]Glucagon(aa6-29)-NH2] — 89-fold lower, 18 nM

With [PhLac]TC(PEG 20 kDa)EYSKYLDSRRAQDFVQWLMNT-NH2 [[PLA^6, C^8(20kDaPEG), E^9]Glucagon(aa6-29)-NH2] the “IC50 (cAMP, inhibit 0.2 mM Glucagon)” value was 236 nM and 92 nM.

Biological target: T1, human glucagon receptor
Assay: cell-based or functional assay
Remark: another data set of the same source

Point of comparison: B3, “Glucagon antagonism IC50 (inhibit 0.2-0.8 nM glucagon)” value 169 nM. Against it:
- B2 — 2.6-fold lower, 64.5 nM

Biological target: T2, human GLP-1 receptor (human, UniProt P43220 24-463)
Assay: cell-based or functional assay

Point of comparison: B2, “GLP-1 agonism EC50” value 85.6 nM. Against it:
- B4 — 1.7-fold lower, 51.2 nM

Biological target: T2, human GLP-1 receptor
Assay: cell-based or functional assay
Remark: another data set of the same source

Point of comparison: [PhLac]TSDYSKYLDERRAQDFVQWLMDTGPSSGAPPPSC(PEG 20 kDa)-NH2 (lactam 7-11) [[PLA6, K12E16(Lactam), D28,CEX-C40(20 kDa)]G(6-40)], “GLP-1 agonism EC50” value 657 nM. Against it:
- [PhLac]TSEYSKYLDERRAKDFVC(PEG 20 kDa″)WLMNT-NH2 (lactam 11-15) [[PLA6, E9,E16K20(Lactam), C24(20 kDa)]G(6-29)] — within 1.5-fold, 825 nM

Biological target: T1, human glucagon receptor
Assay: SPA competition vs 125I-glucagon, receptor membranes

Point of comparison: [PhLac]TC(PEG 5 kDa)EYSKYLDSRRAQDFVQWLMNT-NH2 [[PLA^6, C^8(5kDaPEG), E^9]Glucagon(aa6-29)-NH2], IC50 948 nM. Against it:
- C(PEG 1.2 kDa)FTSEYSKYLDSRRAQDFVQWLMNT-NH2 [[C^5(1.2kDaPEG), E^9]Glucagon(aa5-29)-NH2] — within 1.5-fold, 1080 nM
- C(PEG 5 kDa)FTSEYSKYLDSRRAQDFVQWLMNT-NH2 [[C^5(5kDaPEG), E^9]Glucagon(aa5-29)-NH2] — within 1.5-fold, 634 nM
- C(PEG 20 kDa)FTSEYSKYLDSRRAQDFVQWLMNT-NH2 [[C^5(20kDaPEG), E^9]Glucagon(aa5-29)-NH2] — 2.9-fold lower, 331 nM
- C(PEG 3.4 kDa)FTSEYSKYLDSRRAQDFVQWLMNT-NH2 (also: dimer: Cys5 of two chains joined by 3.4 kDa PEG) [3.4kDaPEG-dimer[C^5, E^9]Glucagon(aa5-29)-NH2] — 2.2-fold lower, 435 nM
- [PhLac]TC(PEG 1.2 kDa)EYSKYLDSRRAQDFVQWLMNT-NH2 [[PLA^6, C^8(1.2kDaPEG), E^9]Glucagon(aa6-29)-NH2] — 4.3-fold lower, 220 nM
- [PhLac]TC(PEG 20 kDa)EYSKYLDSRRAQDFVQWLMNT-NH2 [[PLA^6, C^8(20kDaPEG), E^9]Glucagon(aa6-29)-NH2] — 3.1-fold lower, 303 nM
- [PhLac]TSEYSKYLDSRRAQDFVC(PEG 20 kDa)WLMNT-NH2 [[PLA^6, E^9, C^24(20kDaPEG)]Glucagon(aa6-29)-NH2] — 11-fold lower, 90 nM
- [MCA]TSEYSKYLDSRRAQDFVC(PEG 20 kDa)WLMNT-NH2 [[MCA^6, E^9, C^24(20kDaPEG)]Glucagon(aa6-29)-NH2] — 4.6-fold lower, 208 nM
- [PhLac]TSEYC(PEG 20 kDa)KYLDSRRAQDFVQWLMNT-NH2 [[PLA^6, E^9, C^11(20kDaPEG)]Glucagon(aa6-29)-NH2] — within 1.5-fold, 776 nM
- [PhLac]TSEYSKYLDSRRAQDFVC(PEG 1.2 kDa)WLMNT-NH2 [[PLA^6, E^9,C^24(1.2 kDaPEG)]Glucagon(aa6-29)-NH2] — 200-fold lower, 4.7 nM
